Measured values published in paper PMC11614108, “Structures of Trichomonas vaginalis macrophage migratory inhibitory factor” (Acta Crystallographica Section F: Structural Biology …, 2024).

Assays:
[1] = target: N-terminally hexahistidine-tagged Trichomonas vaginalis macrophage migration inhibitory factor (Trichomonas vaginalis ATCC PRA-98/G3); test: crystal structure; His-TvMIF co-crystallized with 5 mM sodium pyruvate, Morpheus B12, 291 K, space group I4(1) (PDB 8ur2); six monomers
[2] = target: N-terminally hexahistidine-tagged Trichomonas vaginalis macrophage migration inhibitory factor (Trichomonas vaginalis ATCC PRA-98/G3); test: crystal structure; His-TvMIF crystallized at 291 K by sitting-drop vapor diffusion; apo P4(1)2(1)2 form (PDB 8uz4) and I4(1)22 form from an attempt at co-crystallization with 5 mM sodium 4-hydroxyphenylpyruvate (PDB 8ur4); three monomers per asymmetric unit
[3] = target: T1, His-TvMIF (T. vaginalis macrophage migration inhibitory factor) (Trichomonas vaginalis, UniProt A2DXT4); test: X-ray crystal structure, co-crystallization, […] A; format: binding; conditions: 5 mM sodium pyruvate, pH 7.0 protein buffer, reservoir pH 8.5, 291 K; non-canonical site at Asp68, not the tautomerase site (blocked by N-terminal tag); possibly a crystallization artifact
T1 construct: gene TVAG_219770; ~15 kDa monomer; trimer in crystal (8ur2: dimer of trimers)

| Compound | stoichiometry N [1] | stoichiometry N [2] | X-ray crystal structure, co-crystallization, 1.90 A [3] |
| --- | --- | --- | --- |
| N-terminally hexahistidine-tagged Trichomonas vaginalis macrophage migration inhibitory factor (natural protein) | 6 | 3 | – |
| CC(=O)C(=O)O [pyruvate] | – | – | The Fo − Fc omit electron-density maps of PDB entry 8ur2 can be modeled with pyruvate |
